Laboratory results reported in patent publication US11180777B2, “Cell fraction and method of generating a cell fraction containing a protein of interest” (Corning Incorporated, priority 2015, dated 2021).

Assays:
[1] = target: T1, Aldehyde Oxidase (AO) (Homo sapiens, UniProt Q06278); experiment: AO assay with probe substrate phthalazine (HPLC); format: biochemical; conditions: rAO prepared with transfected HEK293 cells
T1 construct: made in house; host or cells: HEK293 cells, transfected by electroporation; supernatant (soluble fraction) after the 37,000 rpm spin
T1 sequence (Q06278 1-1338): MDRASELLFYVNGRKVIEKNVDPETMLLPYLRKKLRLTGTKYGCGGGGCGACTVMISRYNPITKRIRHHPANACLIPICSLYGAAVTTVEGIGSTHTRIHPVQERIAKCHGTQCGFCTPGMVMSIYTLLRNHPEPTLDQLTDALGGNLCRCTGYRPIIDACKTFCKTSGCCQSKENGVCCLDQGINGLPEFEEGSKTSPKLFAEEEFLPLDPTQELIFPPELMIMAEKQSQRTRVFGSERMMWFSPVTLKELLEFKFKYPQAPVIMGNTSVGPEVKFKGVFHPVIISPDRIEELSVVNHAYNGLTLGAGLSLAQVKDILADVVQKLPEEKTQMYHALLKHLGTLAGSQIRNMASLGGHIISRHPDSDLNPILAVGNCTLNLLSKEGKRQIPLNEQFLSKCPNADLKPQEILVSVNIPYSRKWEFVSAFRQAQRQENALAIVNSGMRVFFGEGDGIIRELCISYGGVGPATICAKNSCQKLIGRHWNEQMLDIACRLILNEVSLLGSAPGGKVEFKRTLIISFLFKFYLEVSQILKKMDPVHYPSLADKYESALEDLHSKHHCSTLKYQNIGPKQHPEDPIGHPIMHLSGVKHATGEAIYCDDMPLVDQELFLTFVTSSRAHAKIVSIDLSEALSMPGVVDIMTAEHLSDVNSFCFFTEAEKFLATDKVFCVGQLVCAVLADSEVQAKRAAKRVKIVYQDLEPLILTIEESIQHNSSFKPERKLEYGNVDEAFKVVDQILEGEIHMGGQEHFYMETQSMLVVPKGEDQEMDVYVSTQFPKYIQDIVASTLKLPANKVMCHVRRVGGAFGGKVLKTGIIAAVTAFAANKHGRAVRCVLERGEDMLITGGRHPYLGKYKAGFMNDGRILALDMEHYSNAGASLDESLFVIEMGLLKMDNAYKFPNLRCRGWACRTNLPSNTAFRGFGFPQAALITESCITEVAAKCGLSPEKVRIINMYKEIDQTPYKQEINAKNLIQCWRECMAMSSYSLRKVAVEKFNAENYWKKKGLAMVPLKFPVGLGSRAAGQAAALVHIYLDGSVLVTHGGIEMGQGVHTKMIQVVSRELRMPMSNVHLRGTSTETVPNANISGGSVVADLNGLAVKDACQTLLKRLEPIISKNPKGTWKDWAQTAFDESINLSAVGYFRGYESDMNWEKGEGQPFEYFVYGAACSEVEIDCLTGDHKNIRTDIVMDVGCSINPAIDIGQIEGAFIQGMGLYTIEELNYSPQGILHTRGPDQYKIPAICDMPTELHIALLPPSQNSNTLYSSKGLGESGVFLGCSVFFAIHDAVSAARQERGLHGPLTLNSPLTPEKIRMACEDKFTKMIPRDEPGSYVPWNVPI
Experimental: (§1) The recombinant AO and UGT1A1 enzymes were prepared as following. Briefly, the cells pellets obtained from the cell recovery step were washed once with phosphate buffered saline (PBS) and centrifuged at 1500 rpm for 10 min at 4° C. The resulting pellet was diluted with appropriate amount of 0.1 M potassium phosphate buffer, and transferred into Dounce Homogenizer followed with 10 stokes. The cell lysate was centrifuged at 2600 rpm for 10 minutes at 4° C. The supernatant was transferred to a new set of centrifuge tube and spun at 37,000 rpm for 15 minutes at 4° C. For recombinant AO, the supernatant (soluble fraction) was aliquoted and stored at −80° C. until use. For UGT1A1 microsomes, the pellet was resuspended in an appropriate amount of 0.1M Tris buffer and homogenized with a Dounce homogenizer with 10 strokes. The UGT1A1 microsomes were aliquoted and stored at −80° C. until use.
AO assays are carried out at 37° C. in 25 mM potassium phosphate buffer (pH7.4) containing 0.1 mM EDTA. 170 μL assay buffer was mixed with 20 μL 1 mM phthalazine and prewarmed to 37° C. in heat block. The reaction is initiated with 10 μL 5 mg/mL AO sample. The cap needs to be opened for oxygen circulation. After incubation, the reaction was stopped by the addition of 100 ul 94% acetonitrile/6% glacial acetic acid. The reaction mix was centrifuged (10,000×g) for 3 minutes and supernatant was analyzed on HPLC.

[2] = target: T2, UGT1A1 (Homo sapiens, UniProt P22309); experiment: UGT1A1 assay (beta-estradiol glucuronidation, HPLC); format: biochemical; conditions: electroporation method versus BEVs system
T2 construct: made in house; host or cells: HEK293 cells, electroporated with UGT1A1 cDNA; microsomes (membrane pellet)
T2 sequence (P22309 26-533): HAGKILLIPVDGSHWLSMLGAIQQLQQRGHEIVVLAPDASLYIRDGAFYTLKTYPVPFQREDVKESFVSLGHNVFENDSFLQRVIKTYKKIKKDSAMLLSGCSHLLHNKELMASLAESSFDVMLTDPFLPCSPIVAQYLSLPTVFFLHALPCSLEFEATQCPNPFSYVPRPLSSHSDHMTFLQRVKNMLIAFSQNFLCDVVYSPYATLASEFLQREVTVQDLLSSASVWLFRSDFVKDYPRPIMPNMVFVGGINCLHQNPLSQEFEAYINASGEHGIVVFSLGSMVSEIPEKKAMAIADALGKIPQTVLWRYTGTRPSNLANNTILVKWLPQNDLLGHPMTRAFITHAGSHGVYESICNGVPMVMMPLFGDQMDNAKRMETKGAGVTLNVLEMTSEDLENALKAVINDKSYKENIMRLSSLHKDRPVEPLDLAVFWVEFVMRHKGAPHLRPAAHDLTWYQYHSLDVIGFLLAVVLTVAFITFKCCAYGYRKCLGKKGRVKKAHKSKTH
Experimental: as §1
A 0.2 ml reaction mixture containing 1.0 mg/ml protein, 2 mM uridine diphosphoglucuronic acid (UDPGA), 10 mM magnesium chloride, 0.025 mg/ml alamethicin and 150 uM beta-estradiol in 50 mM Tris (pH 7.5) was incubated at 37° C. for 30 minutes. After incubation, the reaction was stopped by the addition of 50 ul 94% acetonitrile/6% glacial acetic acid. The reaction mix was centrifuged (10,000×g) for 3 minutes and supernatant was analyzed on HPLC.

Molecule	AO kinetics with phthalazine [1]	UGT1A1 activity relative to UGT1A1 expressed with the BEVs system [2] [×]
Aldehyde Oxidase (AO): recombinant Phase 1 drug metabolizing enzyme Aldehyde Oxidase prepared with transfected HEK293 cells (soluble fraction)	exhibited standard michaelis-mention kinetics curve	
UGT1A1: UGT1A1 expressed using the electroporation method (HEK293 microsomes) (protein, UniProt P22309 26-533, looked up) UDP-glucuronosyltransferase …: HAGKILLIPVDGSHWLSMLGAIQQLQQRGHEIVVLAPDASLYIRDGAFYTLKTYPVPFQREDVKESFVSLGHNVFENDSFLQRVIKTYKKIKKDSAMLLSGCSHLLHNKELMASLAESSFDVMLTDPFLPCSPIVAQYLSLPTVFFLHALPCSLEFEATQCPNPFSYVPRPLSSHSDHMTFLQRVKNMLIAFSQNFLCDVVYSPYATLASEFLQREVTVQDLLSSASVWLFRSDFVKDYPRPIMPNMVFVGGINCLHQNPLSQEFEAYINASGEHGIVVFSLGSMVSEIPEKKAMAIADALGKIPQTVLWRYTGTRPSNLANNTILVKWLPQNDLLGHPMTRAFITHAGSHGVYESICNGVPMVMMPLFGDQMDNAKRMETKGAGVTLNVLEMTSEDLENALKAVINDKSYKENIMRLSSLHKDRPVEPLDLAVFWVEFVMRHKGAPHLRPAAHDLTWYQYHSLDVIGFLLAVVLTVAFITFKCCAYGYRKCLGKKGRVKKAHKSKTH		5
